# From patent US20240167070
# T1: model peptide 1, AIYRRGRLYRRNHV
# T1 chain: AIYRRGRLYRRNHV
# T2: model peptide 2, …(OH)HV
# T2 chain: AIYRRGRLYRRXHV
# T3: model peptide 3, AIYRRGRLYRRDHV
# T3 chain: AIYRRGRLYRRDHV
# T4: model peptide 4, AIYRRGRLYRRNSL
# T4 chain: AIYRRGRLYRRNSL
# T5: model peptide 5, …(OH)SL
# T5 chain: AIYRRGRLYRRXSL
# T6: model peptide 6, AIYRRGRLYRRDSL
# T6 chain: AIYRRGRLYRRDSL
# B1: butelase-1 (protein)
# chain: VEGTRWAVLVAGSKGYVNYRHQADVCHAYQILKKGGLKDENIIVFMYDDIAYNESNPHPGVIINHPYGSDVYKGVPKDYVGEDINPPNFYAVLLANKSALTGTGSGKVLDSGPNDHVFIYYTDHGGAGVLGMPSKPYIAASDLNDVLKKKHASGTYKSIVFYVESCESGSMFDGLLPEDHNIYVMGASDTGESSWVTYCPLQHPSPPPEYDVCVGDLFSVAWLEDCDVHNLQTETFQQQYEVVKNKTIVALIEDGTHVVQYGDVGLSKQTLFVYMGTDPAN
# B2: VyPAL2 (protein)
# chain: DSIGTRWAVLIAGSKGYHNYRHQADVCHMYQILRKGGVKDENIIVFMYDDIAYNESNPFPGIIINKPGGENVYKGVPKDYTGEDINNVNFLAAILGNKSAIIGGSGKVLDTSPNDHIFIYYADHGAPGKIGMPSKPYLYADDLVDTLKQKAATGTYKSMVFYVEACNAGSMFEGLLPEGTNIYAMAASNSTEGSWITYCPGTPDFPPEFDVCLGDLWSITFLEDCDAHNLRTETVHQQFELVKKKIAYASTVSQYGDIPISKDSLSVYM
# Assays:
# [1] = target: T1, model peptide 1, AIYRRGRLYRRNHV
# model peptide 2, …(OH)HV = target: T2, model peptide 2, …(OH)HV
# [2] = target: T3, model peptide 3, AIYRRGRLYRRDHV
# [3] = target: T4, model peptide 4, AIYRRGRLYRRNSL
# model peptide 5, …(OH)SL = target: T5, model peptide 5, …(OH)SL
# [4] = target: T6, model peptide 6, AIYRRGRLYRRDSL
protein,measurement,setting,value
B1,Km,[1],67.5 µM
same,Km,"model peptide 2, …(OH)HV",98.8 µM
same,Km,[2],630 µM
B2,Km,[3],42.5 µM
same,Km,"model peptide 5, …(OH)SL",120 µM
same,Km,[4],2070 µM
